Assay [1] addresses T1, TROP2 on FaDu cells (high huTROP2 expression) and SK-OV-3 cells (low TROP2 expression) (human, UniProt P09758 27-323).
T1 sequence (looked up): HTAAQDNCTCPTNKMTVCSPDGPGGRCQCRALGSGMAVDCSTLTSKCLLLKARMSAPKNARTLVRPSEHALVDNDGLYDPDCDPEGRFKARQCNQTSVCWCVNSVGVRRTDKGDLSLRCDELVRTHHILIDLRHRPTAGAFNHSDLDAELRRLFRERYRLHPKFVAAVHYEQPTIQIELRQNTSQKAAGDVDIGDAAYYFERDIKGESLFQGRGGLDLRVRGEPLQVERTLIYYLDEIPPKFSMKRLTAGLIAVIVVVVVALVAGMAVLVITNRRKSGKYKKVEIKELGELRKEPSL
Nature of the assay: cell-based or functional assay.

Assay [2] concerns the target T2, 人TROP2-his (huTROP2-His), ACRO TR2-H5223 (human, UniProt P09758 27-274).
T2 construct: Bought His-tagged human TROP2 protein (ACRO)
T2 sequence: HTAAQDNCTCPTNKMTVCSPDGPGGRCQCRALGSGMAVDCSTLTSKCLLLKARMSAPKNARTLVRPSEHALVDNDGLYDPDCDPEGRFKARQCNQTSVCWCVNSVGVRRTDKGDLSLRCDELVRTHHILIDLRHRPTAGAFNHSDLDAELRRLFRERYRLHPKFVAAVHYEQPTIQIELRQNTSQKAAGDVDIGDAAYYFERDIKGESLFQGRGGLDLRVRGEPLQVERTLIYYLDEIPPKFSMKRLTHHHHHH
Kind of assay: Biacore T200 SPR; antibody captured on Protein A chip, huTROP2-his as analyte, 1:1 model.

In assay [3] the target is T2, 人TROP2-his (huTROP2-His), ACRO TR2-H5223. Nature of the assay: ForteBio Octet BLI; antibody on Protein A sensor, 100nM antigen.
For assay [4], the target named is T3, CHO细胞表面表达的人TROP2 (huTROP-2 CHO-K1 cells) (human, UniProt P09758 27-323).
T3 construct: Untagged human TROP2 stably expressed on CHO-K1 cells; The cells were fixed with paraformaldehyde in the cell ELISA; also called CHO-K1/hTROP2
T3 sequence: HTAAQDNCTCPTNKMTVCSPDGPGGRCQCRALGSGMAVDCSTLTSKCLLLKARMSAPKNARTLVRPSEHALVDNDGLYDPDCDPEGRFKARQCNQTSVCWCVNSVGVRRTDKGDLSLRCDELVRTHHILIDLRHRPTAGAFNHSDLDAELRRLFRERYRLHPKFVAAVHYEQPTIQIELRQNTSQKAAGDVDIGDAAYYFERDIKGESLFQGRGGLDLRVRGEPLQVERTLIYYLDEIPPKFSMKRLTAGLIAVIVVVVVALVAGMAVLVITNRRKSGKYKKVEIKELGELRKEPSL
Kind of assay: cell ELISA on fixed huTROP-2 CHO-K1 cells.

The values that follow come from CN115368461A (JIANGSU HENGRUI MEDICINE CO; SHANGHAI HENGRUI …, dated 2022).

B1: hu29-12 (antibody, human IgG1, kappa, V domains shown)
VH: EVKLVESGGGLVQPGGSLRLSCAASGFSFSDYYMYWVRQAPGKGLEWVANIDNVGDTTYYPDTVKGRFTISRDNAKNSLYLQMNSLRAEDTAVYYCARHDPLTGPPFFAMDYWGQGTTVTVSS
VL: DIQMTQSPSSLSASVGDRVTITCKASQGINQYIAWYQQKPGKGPKLLIHYTSTLQPGVPSRFSGSGSGRDYTFTISSLQPEDIATYYCLQYDNLWTFGGGTKVEIKR
notes: also called mAb29 VH4 + VL3
Consider B1, for which, in assay [1], the “IC50(nM), DT3C内吞杀伤实验 on FaDu cells” value was found to be 0.0094 nM and the “Imax(%), DT3C内吞杀伤实验 on FaDu cells” value is 100%. The same molecule gave a Kd in assay [2] of 0.202 nM.

B2: hu53-02 (antibody, human IgG1, kappa, V domains shown)
VH: EVQLVQSGAEVKKPGASVKVSCKASGYTFTSYWITWVRQAPGQGLEWMGNIHPGSSTTNYNEKFKSRVTMTRDTSTSTVYMELSSLRSEDTAVYYCAREVGDYWGQGTTVTVSS
VL: EIVLTQSPATLSLSPGERATLSCRASQIIGTSIHWYQQKPGQAPRLLIKYVSESISGIPARFSGSGSGTDFTLTISSLEPEDFAVYYCQQSHSWPFTFGGGTKVEIKR
notes: also called mAb53 VH1 + VL2
For B2, in assay [1], the “IC50(nM), DT3C内吞杀伤实验 on FaDu cells” value is 0.0643 nM and the “Imax(%), DT3C内吞杀伤实验 on FaDu cells” value came to 97.5%. In assay [2], the affinity, expressed as Kd, was 0.691 nM.

B3: hRS7 (antibody, human IgG1, kappa, V domains shown)
VH: QVQLQQSGSELKKPGASVKVSCKASGYTFTNYGMNWVKQAPGQGLKWMGWINTYTGEPTYTDDFKGRFAFSLDTSVSTAYLQISSLKADDTAVYFCARGGFGSSYWYFDVWGQGSLVTVSS
VL: DIQLTQSPSSLSASVGDRVSITCKASQDVSIAVAWYQQKPGKAPKLLIYSASYRYTGVPDRFSGSGSGTDFTLTISSLQPEDFAVYYCQQHYITPLTFGAGTKVEIKR
As to B3, in assay [1], the “IC50(nM), DT3C内吞杀伤实验 on FaDu cells” value is 0.069 nM and the “Imax(%), DT3C内吞杀伤实验 on FaDu cells” value came to 97.7%.

B4: TINA (antibody, human IgG1, kappa, V domains shown)
VH: QVQLVQSGAEVKKPGASVKVSCKASGYTFTTAGMQWVRQAPGQGLEWMGWINTHSGVPKYAEDFKGRVTISADTSTSTAYLQLSSLKSEDTAVYYCARSGFGSSYWYFDVWGQGTLVTVSS
VL: DIQMTQSPSSLSASVGDRVTITCKASQDVSTAVAWYQQKPGKAPKLLIYSASYRYTGVPSRFSGSGSGTDFTLTISSLQPEDFAVYYCQQHYITPLTFGQGTKLEIKR
notes: Control antibody built according to WO2015098099A1; also called TINA抗体; 阳性对照抗体TINA
Turning to B4, in assay [2], binding was put at a Kd of 17 nM.

B5: mAb53 (antibody, V domains shown)
VH: QVQLQQPGAELVKPGASVKMSCKASGYTFTSYWITWVKQRPGQGLEWIGNIHPGSSTTNYNEKFKSKATLTVHTSSSTVYMQLTSLTSEDSAVYYCAREVGDYWGQGTSVTVSS
VL: DILLTQSPAILSVSPGERASFSCRASQIIGTSIHWYQQRTNGSPRLLIKYVSESISGIPSRFSGSGSGTDFTLSINSVESEDIADYYCQQSHSWPFTFGGGTKL
notes: Murine hybridoma monoclonal antibody; the murine constant regions are not; also called 鼠源mAb53; 鼠源抗体mAb53
As to B5, the binding result in assay [3] and in assay [4] was “binds” in each case.

B6: mAb29 (antibody, V domains shown)
VH: EVKLVESGGDLVQPGGSLKLSCAASGFSFSDYYMYWVRQTPEKRLEWVANIDNGGDTTYYPDTVKGRFTISRDNAKNTLYLQMSRLKSEDTAMYYCARHDPLTGPPFFAMDYWGQGTSVTVSS
VL: DIQMTQSPSSLSASLGGKVTISCKASQGINQYIAWYQLKPGKGPRLLIHYTSTLQPGVPSRFSGSGSGRDYSFSISNLEPEDIASYYCLQYDNLWTFGGGTKLEIK
notes: Murine hybridoma monoclonal antibody; the murine constant regions are not; In the cell ELISA it was detected with goat anti-mouse IgG-HRP; also called 鼠源mAb29; 鼠源抗体mAb29
With B6, the binding result in assay [3] and in assay [4] was “binds” each time.
